In the supplement of paper PMC10567573 one finds protein stability index data, which are given here for 72 sequences.

± gives the standard deviation.

The series can be described thus: protein stability index of a GFP-peptide fusion (GPS, HEK-293T) (PSI 1-6); higher = more stable.
Where [1] appears, read: treatment: DMSO, c terminus: a fixed tail appended.
Setting [2] is: treatment: MLN4924 1 uM, 8 h, c terminus: a fixed tail appended.
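Also: 24-mer peptide tiles fused after GFP, lentivirally expressed, FACS-sorted into six equal bins by GFP/DsRed ratio, decoded by Illumina sequencing, PSI is the read-weighted mean bin number.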

As to VIDKETIDLLAFTSVAELELLGLE [SDE2], the protein stability index by setting is: under setting [1], 2.27 ± 0.52; under setting [2], 2.73 ± 0.48.

On to MNYRRLGGGVGVIKMTHCESHIW [KLHL20], for which the protein stability index by setting is: (treatment: DMSO, c terminus: native) 2.75 ± 0.32; (treatment: MLN4924 1 uM, 8 h, c terminus: native) 2.34 ± 0.31.

In the case of TFILKNPPENSDSGTGKKEKEKKN [EIF5], the protein stability index by setting is: under setting [1], 4.94 ± 0.3; under setting [2], 5.137 ± 0.05.

As to LTGQKAVKVHGLLKTFVKQTDHIK [GFOD1], the protein stability index under setting [1] came to 2.85 ± 0.29 and the protein stability index under setting [2] was 2.59 ± 0.27.

For the sequence RVDVDTYLTSQLPPLREIILGPSS [NFE2L1], the protein stability index is 2.67 ± 0.46 under setting [1] and 2.67 ± 0.35 under setting [2].

For the sequence NDAYGPPSNFLEIDVSNPQTVGVG [SNX3], the protein stability index under setting [1] is 4.68 ± 0.35 and the protein stability index under setting [2] turned out to be 4.59 ± 0.08.

In the case of NSDDSYTCECLEGFRLAEDGKRCR [MATN2], the protein stability index reads like this: under setting [1], 3.54 ± 0.34; under setting [2], 4.12 ± 0.67.

Turning to SAKLAPHYFHSISYKIEEISPSTL [KCNK9], the protein stability index is, setting by setting: under setting [1], 2.41 ± 0.23; under setting [2], 2.31 ± 0.34.

Regarding ADGAWVVKMFYSFQDKRNLYLIME [STK38L], the protein stability index by setting is: under setting [1], 3.11 ± 1; under setting [2], 2.99 ± 0.79.

As to DIQIVERKKSADVLALADEAGYYF [ADAMTSL2], the protein stability index reads like this: under setting [1], 3.08 ± 0.23; under setting [2], 3.39 ± 0.2.

As to PQDLAPQVSAHHRSQESLTSQESE [TBC1D10A], the protein stability index amounted to 5.64 ± 0.15 under setting [1] and 5.56 ± 0.23 under setting [2].

As to LPCDLPKVVSRAENLSVPVIGALL [LPCAT4], the protein stability index is, setting by setting: under setting [1], 2.29 ± 0.37; under setting [2], 2.27 ± 0.31.

For PEDLQTDLAKLVDQQNPTLGETPE [ZNF449], the protein stability index turned out to be 5.62 ± 0.23 under setting [1] and 5.73 ± 0.2 under setting [2].

Consider SFEAPLTPLIQQRARDSPEPGAGL [PSD2], for which the protein stability index is, setting by setting: under setting [1], 4.66 ± 0.22; under setting [2], 4.68 ± 0.2.

As to NVYRKRRKYFADLAMNYKHGDPIP [TPH1], the protein stability index is, setting by setting: under setting [1], 2.75 ± 0.13; under setting [2], 2.9 ± 0.26.

As for TLMGKLKLKNTVTIQQEKLLAEKE [SASS6], the protein stability index is, setting by setting: under setting [1], 3.406 ± 0.012; under setting [2], 3.39 ± 0.58.

As to SPYFHDQVLLKGMTSISLPSVMDP [ZBTB22], the protein stability index is, setting by setting: under setting [1], 3.03 ± 0.3; under setting [2], 3.12 ± 0.28.

As to PSPVRAPAPSPAKEERKTEVVMNS [PALM], the protein stability index by setting is: under setting [1], 5.35 ± 0.36; under setting [2], 5.53 ± 0.13.

Consider YEKTPFDQLAFIEELFSLMVVNRL [EID1], for which the protein stability index amounted to 2.68 ± 0.36 under setting [1] and 3.01 ± 0.43 under setting [2].

On to KETVNVKTVCGYYTSAGTYGLDSV [GMCL1], for which the protein stability index runs as follows: under setting [1], 2.48 ± 0.29; under setting [2], 2.68 ± 0.3.

For the sequence EEEVFPLAMNYLDRFLAGVPTPKS [CCND2], the protein stability index by setting is: under setting [1], 3.35 ± 0.43; under setting [2], 3.55 ± 0.25.

Sequence GEEPVPHQQVEEALSFTLLGSAPL [NEK8] came in with a protein stability index under setting [1] of 4.33 ± 0.22 and a protein stability index under setting [2] of 4.32 ± 0.29.

RAFKIKDFANTIPGHGGIMDRFDC [CDS1]: the protein stability index stood at 2.41 ± 0.28 under setting [1] and 2.76 ± 0.27 under setting [2].

As to MGSQHSAAARPSSCRRKQEDDRDG [TMEM106C], the protein stability index is, setting by setting: under setting [1], 5.22 ± 0.15; under setting [2], 5.4 ± 0.15.

HFMVLSKSGPGDGFFSSAFQARLS [POMT2]: the protein stability index is, setting by setting: under setting [1], 2.19 ± 0.11; under setting [2], 2.06 ± 0.18.

As to MSTGPIAESWCYTQVKVVKFSYMW [SPOPL], the protein stability index was 2.41 ± 0.08 under setting [1] and 3.35 ± 1.5 under setting [2].

Turning to LRRTGCAALRIANCKLFRLQLQQG [GAN], the protein stability index reads like this: under setting [1], 2.33 ± 0.47; under setting [2], 2.13 ± 0.28.

For FTDCSFFVRGQEFKAHKSVLAARS [SPOPL], the protein stability index reads like this: under setting [1], 2.95 ± 0.69; under setting [2], 2.61 ± 0.57.

Take PDNCEMFLNFNGMKLFLDCLKEFP [ZER1]: the protein stability index turned out to be 2.25 ± 0.18 under setting [1] and 2.19 ± 0.33 under setting [2].

For the sequence NHEIMPGGSVNITCVAVGSPMPYV [PTPRD], the protein stability index runs as follows: under setting [1], 2.15 ± 0.8; under setting [2], 2.28 ± 0.16.

For the sequence YIGFYGKETTNTCILKCNLCSVNI [PDS5B], the protein stability index runs as follows: under setting [1], 2.98 ± 1.6; under setting [2], 2.96 ± 1.

Turning to FHNAVSAYFAGNQKQLEQTLQQFN [ARFIP2], the protein stability index by setting is: under setting [1], 2.45 ± 0.23; under setting [2], 2.34 ± 0.42.

Consider QTKQVYDAVGMLGIEEVTYENCLQ [NLN], for which the protein stability index worked out at 3.56 ± 0.4 under setting [1] and 3.73 ± 0.53 under setting [2].

For the sequence HMTRHLEESEKAMQERVQRLEAAR [LRRC45], the protein stability index runs as follows: under setting [1], 5.15 ± 0.06; under setting [2], 5.06 ± 0.19.

On to IPIHGKGNFPTMEVKPKDIIHVVK [TENT5D], for which the protein stability index by setting is: under setting [1], 2.86 ± 0.24; under setting [2], 2.93 ± 0.2.

Take DPKEDVFQQNHLFWLQNSSPSSDR [PHTF1]: the protein stability index was 4.71 ± 0.18 under setting [1] and 4.49 ± 0.19 under setting [2].

Take PSLLELAWEKLLAAFPNLANLSRT [KLHDC10]: the protein stability index turned out to be 2.56 ± 0.21 under setting [1] and 2.55 ± 0.24 under setting [2].

Regarding FLTYVPLLGLKAFLGLFFIVRFLE [FADS1], the protein stability index is, setting by setting: under setting [1], 2.56 ± 0.6; under setting [2], 2.17 ± 0.67.

As for NHEALRQAKQEMNESRRQIQSLTC [PRPH], the protein stability index under setting [1] is 4.47 ± 0.18 and the protein stability index under setting [2] is 4.38 ± 0.15.

GLLLESLVPFIVNDNITNNFFRFL [DYNC2LI1] returned a protein stability index under setting [1] of 2.9 ± 0.44 and a protein stability index under setting [2] of 3.17 ± 0.62.

Consider RYQQSKAAALKCQLCEKAPKEATV [TRIM9], for which the protein stability index is, setting by setting: under setting [1], 3.85 ± 0.28; under setting [2], 4.01 ± 0.14.

In turn, HPWKWSNGKEFNNWFNVTGSDKCV [CD69] registered a protein stability index under setting [1] of 2.58 ± 0.53 and a protein stability index under setting [2] of 2.46 ± 0.17.

For KLEAEKRILQEKLDQPVSAPPSPR [CCDC6], the protein stability index was 5.24 ± 0.26 under setting [1] and 5.21 ± 0.37 under setting [2].

Turning to NGNRRRRKLRKTVNGDGSRENGNN [PHTF1], the protein stability index by setting is: under setting [1], 4.93 ± 0.43; under setting [2], 5.12 ± 0.19.

Consider RFKDKSSEEAVREVHRLIEGKAPI [TPPP], for which the protein stability index is, setting by setting: under setting [1], 4.6 ± 0.15; under setting [2], 4.58 ± 0.18.

In the case of LTTASIIQLGVTPPGYSAWIKEEA [SLC6A17], the protein stability index reads like this: under setting [1], 2.6 ± 0.23; under setting [2], 2.82 ± 0.31.

For NHEQEVNTLRCQLGDRLNVEVDAA [KRT33B], the protein stability index is 4.94 ± 0.11 under setting [1] and 5.16 ± 0.22 under setting [2].

Turning to LEERLQLQFEAEMARLQEEHGDQL [MTUS2], the protein stability index is, setting by setting: under setting [1], 5.4 ± 0.32; under setting [2], 5.13 ± 0.17.

For FEEQENYFLLCDVLPEDRILREEL [ZNF277], the protein stability index is, setting by setting: under setting [1], 3.26 ± 0.16; under setting [2], 3.5 ± 0.67.

TAILIECGADVNVRDSDDNSPLHI [FEM1C]: the protein stability index reads like this: under setting [1], 3.43 ± 0.34; under setting [2], 3.5 ± 0.3.

Take AVNNGDFEAYAKICDPGLTSFEPE [CAMK2B]: the protein stability index reads like this: under setting [1], 4.35 ± 0.27; under setting [2], 4.38 ± 0.14.

With DGMRNKETLEGREKAFIAHFQDNL [MED27], the protein stability index was determined as 4.35 ± 0.17 under setting [1] and 4.2 ± 0.17 under setting [2].

On to VRSIQPEEKERIGQFVFARDAKAA [AASDHPPT], for which the protein stability index reads like this: under setting [1], 4.13 ± 0.31; under setting [2], 4.39 ± 0.27.

In turn, LYDLRADREVAIYSKESIIFGASS [GNB5] showed a protein stability index under setting [1] of 2.51 ± 0.27 and a protein stability index under setting [2] of 2.72 ± 0.27.

For the sequence STTEGIQLAKELGATYLELHSLDD [RHOBTB3], the protein stability index under setting [1] stood at 3.77 ± 0.3 and the protein stability index under setting [2] came out at 4.16 ± 0.37.

DPQLEIAYRGNCKDVSRCVAERKY [SMOC2]: the protein stability index was determined as 4.04 ± 0.32 under setting [1] and 4.12 ± 0.11 under setting [2].

The sequence HLVQHQHPNSRKSSAGGAKAGQPE [ZNF8] returned a protein stability index under setting [1] of 4.8 ± 0.18 and a protein stability index under setting [2] of 4.79 ± 0.16.

PHRMDRRLLALIYLAHASDVLENA [GOLPH3] displayed a protein stability index under setting [1] of 2.55 ± 0.27 and a protein stability index under setting [2] of 2.34 ± 0.21.

As for SFVTGSHVGELIIWDALDWTMQAY [WDR41], the protein stability index reads like this: under setting [1], 2.9 ± 0.72; under setting [2], 3.21 ± 1.5.

VLFTSDACGLSDVAHVESLQEKSQ [NR2F2] showed a protein stability index under setting [1] of 3.93 ± 0.26 and a protein stability index under setting [2] of 4.04 ± 0.28.

For the sequence YLVQGLVEECQAALQNKDTYEPFC [KCTD10], the protein stability index was found to be 2.32 ± 0.46 under setting [1] and 2.65 ± 0.24 under setting [2].

Turning to YGHELLINTLITSGADTAKCGIHS [ANKRD44], the protein stability index was determined as 2.27 ± 0.38 under setting [1] and 1.99 ± 0.2 under setting [2].

TAGLKIFEPPAPGEGNSSQNSRNK [TNFSF13B] showed a protein stability index under setting [1] of 5.2 ± 0.22 and a protein stability index under setting [2] of 5.24 ± 0.15.

Take NNQYSEGVQREAQRIALRLGNGND [KMT2E]: the protein stability index by setting is: under setting [1], 4.51 ± 0.24; under setting [2], 4.63 ± 0.18.

As for FSDVTFILDDGTISAHKPLLISSC [RHOBTB2], the protein stability index amounted to 2.47 ± 0.15 under setting [1] and 2.25 ± 0.29 under setting [2].

Take LHREVRSTPLTATPGGRGDMKYGI [VTI1B]: the protein stability index was 3.72 ± 0.24 under setting [1] and 3.67 ± 0.12 under setting [2].

EKGTWTELEGDVAEPLAGPACVTV [KLHL14] registered a protein stability index under setting [1] of 4.66 ± 0.19 and a protein stability index under setting [2] of 4.6 ± 0.19.

With QAIDATVAAELLNHLLESMPLREG [HES6], the protein stability index under setting [1] is 2.43 ± 0.41 and the protein stability index under setting [2] turned out to be 2.3 ± 0.28.

In the case of HSGDLGQLDGLGFLYVTGHIKEIL [ACSBG2], the protein stability index under setting [1] was determined as 2.09 ± 0.17 and the protein stability index under setting [2] worked out at 2.19 ± 0.32.

Consider FYAITTLHNLLLHQEGAKMAVRLA [CTNNB1], for which the protein stability index reads like this: under setting [1], 3.02 ± 0.17; under setting [2], 2.79 ± 0.15.

As for MGQCRSANAEDAQEFSDVERAIET [S100A14], the protein stability index came to 4.99 ± 0.32 under setting [1] and 5.15 ± 0.2 under setting [2].

With KEQSKELQMKLEKLREKERKKEAK [FAM50A], the protein stability index by setting is: under setting [1], 5.02 ± 0.54; under setting [2], 5.55 ± 0.16.
